# Measurements reported in article PMC6506218.
# pKd: −log10 of the molar value.
# Target: full-length AgrC-I Q305A in lipid nanodiscs (S. aureus)
# Test: fluorescence polarisation
row,Substance,pKd
1,AIP-I (peptide),7.25
2,AIP-II (peptide),6.82
